Where two headings read alike, the source gives them in different places.

Series [1] concerns the target T1, T4 DNA ligase (Enterobacteria phage T4?) (UniProt P00970).
T1 sequence: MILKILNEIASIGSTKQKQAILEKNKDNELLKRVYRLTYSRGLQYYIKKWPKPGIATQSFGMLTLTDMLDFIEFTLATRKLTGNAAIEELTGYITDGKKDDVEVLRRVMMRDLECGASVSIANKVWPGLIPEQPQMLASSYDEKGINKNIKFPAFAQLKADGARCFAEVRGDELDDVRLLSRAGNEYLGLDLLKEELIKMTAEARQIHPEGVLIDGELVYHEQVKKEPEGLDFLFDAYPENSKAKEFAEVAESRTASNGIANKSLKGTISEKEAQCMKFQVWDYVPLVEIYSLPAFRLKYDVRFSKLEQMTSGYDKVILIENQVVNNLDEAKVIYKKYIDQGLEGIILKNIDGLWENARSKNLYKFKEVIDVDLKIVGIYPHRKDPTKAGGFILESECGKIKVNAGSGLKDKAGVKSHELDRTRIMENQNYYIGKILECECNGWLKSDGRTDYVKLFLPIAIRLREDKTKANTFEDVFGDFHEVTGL

The target of series [2] is T1, T4 DNA ligase (Enterobacteria phage T4?). The note with it: 5'-phosphate, 25 C.
The target of another series is T2, SapI (UniProt O52712).
T2 sequence: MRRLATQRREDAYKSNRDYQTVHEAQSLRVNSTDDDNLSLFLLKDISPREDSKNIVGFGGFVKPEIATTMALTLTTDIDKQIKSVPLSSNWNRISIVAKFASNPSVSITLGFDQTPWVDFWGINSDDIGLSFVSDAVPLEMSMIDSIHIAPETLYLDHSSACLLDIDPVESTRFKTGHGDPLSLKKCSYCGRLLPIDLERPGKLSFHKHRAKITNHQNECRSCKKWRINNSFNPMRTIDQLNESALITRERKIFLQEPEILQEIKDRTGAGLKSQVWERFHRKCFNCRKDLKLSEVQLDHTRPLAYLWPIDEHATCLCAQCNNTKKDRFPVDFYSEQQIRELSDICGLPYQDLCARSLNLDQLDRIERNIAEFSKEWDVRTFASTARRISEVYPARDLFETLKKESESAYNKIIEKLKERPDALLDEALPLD
Briefly: cleavage_in_vitro. The conditions noted are these: SapI digestion giving 3-base overhang.

GNN/TNN mismatch overhang substrate had a relative ligation rate (fold faster than TNN/GNN) in series [1] (ligation of edge G:T mismatch) of 80.

“NNNCGAAGAGCTGCGATCCAGTGCGCCGTGCATTGATCAACGCAANNNNNNATCTCTCTCTTTTCCTCCTCCTCCGTTGTTGTTGTTGAGAGAGATNNNNNNTTGCGTTGATCAATGCACGGCGCACTGGATCGCAGCTCTTCG [AAA 3-base overhang substrate]” registered a binding signal in series [2] (correct ligations 1403.8 x10-5) of 99.2 % fidelity.

In turn, “NNNCGAAGAGCTGCGATCCAGTGCGCCGTGCATTGATCAACGCAANNNNNNATCTCTCTCTTTTCCTCCTCCTCCGTTGTTGTTGTTGAGAGAGATNNNNNNTTGCGTTGATCAATGCACGGCGCACTGGATCGCAGCTCTTCG [GGC 3-base overhang substrate]” came in with a binding signal in series [2] (correct ligations 864.7 x10-5) of 53.6 % fidelity.

Consider “NNNCGAAGAGCTGCGATCCAGTGCGCCGTGCATTGATCAACGCAANNNNNNATCTCTCTCTTTTCCTCCTCCTCCGTTGTTGTTGTTGAGAGAGATNNNNNNTTGCGTTGATCAATGCACGGCGCACTGGATCGCAGCTCTTCG [TAA 3-base overhang substrate]”, for which, in series [2] (correct ligations only 209.0 x10-5), the binding signal was found to be 98.6 % fidelity.

In the case of “TCAGGTNNNCGAAGAGCTGCGATCCAGTGCGCCGTGCATTGATCAACGCAANNNNNNATCTCTCTCTTTTCCTCCTCCTCCGTTGTTGTTGTTGAGAGAG [ligation library precursor (extended)]”, the activity with SapI is greater than 95 % cut.

In series [1] (stated as about 80-fold slower than 5'-G mismatch), TNN/GNN mismatch overhang substrate registered a relative ligation rate (relative to GNN/TNN) of 0.0125.
